{
  "source": "patent US20160244745A1",
  "about": "(published 2016)",
  "assay_in_all_cases": "yeast display titration; KD, yeast",
  "key": {"Rabbit IgG": {"target": "Rabbit IgG"}, "Goat IgG": {"target": "Goat IgG"}, "Lysozyme": {"target": "Lysozyme"}},
  "data": [
    {"binder": "KFWATVHSVHGYFEVPVYAETLDEALELAFGQYGNALGYVTRVRP (designed binder)", "note": "[Rabbit IgG 3.2.3]", "values": [
      {"measurement": "Kd", "setting": "Rabbit IgG", "result": 1.5, "unit": "nM"}
    ]},
    {"binder": "KFWATVYDYDADYYFEVPVYAETLDEALELAVWRYYSNHSDYLVTRVRP (designed binder)", "note": "[Goat IgG 2.2.1]", "values": [
      {"measurement": "Kd", "setting": "Goat IgG", "result": 0.2, "unit": "nM"}
    ]},
    {"binder": "KFWATVFSYGNLFEVPVYAETLDEALELAEWQYSGAYEYVTRVRP (designed binder)", "note": "[Lysozyme A0.3.2]", "values": [
      {"measurement": "Kd", "setting": "Lysozyme", "result": "~1550", "unit": "nM"}
    ]}
  ]
}
